Patent US20250115640A1, “NEUROPROTECTIVE POLYPEPTIDE COMPOUND AND APPLICATION THEREOF” (Innerse (Zhuhai) Pharmaceutical Co., Ltd., priority 2021, published 2025)
Values joined by “and” are separate entries in the source; they are usually repeats but may differ in a detail not shown here. Equal entries are not always repeated.

Key:
Assay type in all cases: in vivo, Sprague-Dawley (SD) rats
[1] = tested on: MCAO ischemia-reperfusion model; assay: MCAO ischemia-reperfusion model, TTC staining, cerebral infarct area and inhibition rate (Example 6)
[2] = tested on: MCAO ischemia-reperfusion model; assay: MCAO ischemia-reperfusion model, rat Neurological Severity Scores (NSS) (Example 6)
Description: 3) Cerebral ischemia reperfusion surgery: • A. Isolating and exposing blood vessels: the skin of the surgical area was shaved, and the rats were placed under a surgical microscope. The skin of the rat was cut along the midline with ophthalmic scissors, with a cut of about 2 cm length. Through the right neck of the rat, the muscle tissue of the right neck was bluntly isolated and opened with a microforcep to expose the right common carotid artery (CCA), and then isolated upward along the common carotid artery to further expose the external carotid artery (ECA) and internal carotid artery (ICA); • B. The proximal end of CCA was ligated and the CCA at the Y-shaped branch was temporarily clamped; the ligated site of CCA to the clamped site of ICA were threaded, tied with a loose knot (pre-ligation) for later use, and a small incision at the proximal end of the pre-ligation was made; • C. Inserting the suture emboli: Suture emboli No. 4-0 was inserted through the incision of CCA, pushed slowly and gently into the internal carotid artery, and stopped temporarily at the artery clamp of ICA. The pre-ligation thread was tied tightly (to avoid severe bleeding when pushing the suture emboli), then the artery clamp that blocked the blood flow of ICA was removed, and the suture emboli was immediately pushed into ICA until entering into the cranium. One should be careful not to insert the suture emboli into the pterygopalatine artery, which is another branch of the internal carotid artery and is one of the extra-cranial branches of ICA. […] Then the insertion was terminated and the time was recorded. […] Note: The first digit of the animal number represents the group (1, 2, 3 and 4 represent the model control group, S3 group, t-PA group and S3+t-PA group respectively), and the second letter represents the gender (M is male), the last three digits represent the animal serial number. a means giving 3 mL S3 and 3 mL sterile water for injection, b means giving 3 mL t-PA and 3 mL sterile water for injection, c means giving 3 mL S3 and 3 mL t-PA. • Route of administration: tail vein injection; • Administration time: immediately after ischemia-reperfusion (within 5 minutes); • Dosing frequency and cycle: 1 dose; • The day of modeling was defined as D0, and the day before was defined as D-1. • Measurement time: 24 hours before the modeling, 24 and 72 hours after the modeling; • Animals measured: all the surviving animals planned to be measured; • Measurement method: a motor function test, sensory test, balance test, and reflex and abnormal behavior test were performed on animals, according to the rat for details. […]

[3] = Body weight of MCAO model animals (Example 6); conditions: individual animal
Procedure: • Animals measured: all the surviving experimental animals planned to be measured; • Measurement time: the body weight was measured at least twice during the adaptation period, once 24 hours before surgery for grouping, and once 24 hours after surgery.
Cerebral ischemia-reperfusion is an acute injury model, wherein the weight of experimental animals will drop dramatically after MCAO modeling. Thus, the weight of experimental animals is one of the most basic sensitive parameters to comprehensively reflect the health status of animals. In this experiment, the body weight of all the animals was monitored on the day before the surgery and on the first day after the surgery, and the changes of animal's body weight were observed and recorded.

[4] = 3 mg/kg i.v. immediately after reperfusion, 24 h after surgery, group mean ± SD

B1: t-PA: recombinant human TNK tissue-type plasminogen activator for injection (Mingfule) purchased from Guangzhou Mingkang Bioengineering Co., Ltd. (protein, UniProt P00750 36-562, looked up, variant T103N N117Q K296A H297A R298A R299A)
Tissue-type plasminogen …: SYQVICRDEKTQMIYQQHQSWLRPVLRSNRVEYCWCNSGRAQCHSVPVKSCSEPRCFNGGTCQQALYFSDFVCQCPEGFAGKCCEIDTRATCYEDQGISYRGNWSTAESGAECTNWQSSALAQKPYSGRRPDAIRLGLGNHNYCRNPDRDSKPWCYVFKAGKYSSEFCSTPACSEGNSDCYFGNGSAYRGTHSLTESGASCLPWNSMILIGKVYTAQNPSAQALGLGKHNYCRNPDGDAKPWCHVLKNRRLTWEYCDVPSCSTCGLRQYSQPQFRIKGGLFADIASHPWQAAIFAAAAASPGERFLCGGILISSCWILSAAHCFQERFPPHHLTVILGRTYRVVPGEEEQKFEVEKYIVHKEFDDDTYDNDIALLQLKSDSSRCAQESSVVRTVCLPPADLQLPDWTECELSGYGKHEALSPFYSERLKEAHVRLYPSSRCTSQHLLNRTVTDNMLCAGDTRSGGPQANLHDACQGDSGGPLVCLNDGRMTLVGIISWGLGCGQKDVPGVYTKVTNYLDWIRDNMRP
modifications: tenecteplase (TNK-tPA), Mingfule
In the case of B1, the “Infarct area, individual animals” value ([1]; 3 mg/kg i.v. immediately after reperfusion, 24 h after modeling, individual animal) is reported as 19.069% and 18.394% and 16.546% and 21.064% and 19.195% and 18.719% and 16.209% and 18.356% and 19.147%, the Infarct area weight [1, 4] is reported as 0.26 ± 0.022 g and the infarct area [1, 4] is reported as 18.522±1.372%. The “Cerebral infarct inhibition rate” value ([1]; 3 mg/kg i.v. immediately after reperfusion, 24 h after surgery, vs model control, group mean ± SD) was 22.802±5.719%, the “Weight of infarct area, individual animals” value ([1]; 24 h after modeling, individual animal) was 0.291 g and 0.268 g and 0.229 g and 0.289 g and 0.272 g and 0.260 g and 0.230 g and 0.239 g and 0.265 g and the “Cerebral infarct inhibition rate, individual animals” value ([1]; vs model control group, individual animal) was 20.521% and 23.336% and 31.037% and 12.207% and 19.996% and 21.984% and 32.445% and 23.493% and 20.196%. The “NSS D2, individual animals” value ([2]; 3 mg/kg i.v. immediately after reperfusion, after surgery, individual animal) was 7 (2×) and 8 and 7.5 (2×) and 6.5 (2×) and 6 and 5.5, the “NSS D 2” value ([2]; 3 mg/kg i.v. immediately after reperfusion, one day after surgery, group mean ± SD) was 6.83±0.75 and the NSS reduction rate ([2]; one day after surgery, relative to model control group, group mean ± SD) was 11.83±9.62%. The “NSS reduction rate, individual animals” value ([2]; relative to model control group, individual animal) was 9.68% (2×) and −3.23% and 3.23% (2×) and 16.13% (2×) and 22.58% and 29.03%, the “Body weight D 2, individual animals” value ([3]; after surgery and administration) was 230.57 g and 203.58 g and 203.63 g and 199.35 g and 205.31 g and 223.28 g and 223.30 g and 217.60 g and 200.68 g and the “Body weight D 0, individual animals” value ([3]; before surgery (baseline)) was 289.15 g and 246.68 g and 263.91 g and 259.23 g and 273.31 g and 281.77 g and 281.59 g and 273.94 g and 251.02 g.
